{"source": "patent US20200289646A1", "data": [{"biological_target": "human mesothelin (MSLN) (human) (UniProt Q13421)", "sequence (Q13421 296-606 limits assumed)": "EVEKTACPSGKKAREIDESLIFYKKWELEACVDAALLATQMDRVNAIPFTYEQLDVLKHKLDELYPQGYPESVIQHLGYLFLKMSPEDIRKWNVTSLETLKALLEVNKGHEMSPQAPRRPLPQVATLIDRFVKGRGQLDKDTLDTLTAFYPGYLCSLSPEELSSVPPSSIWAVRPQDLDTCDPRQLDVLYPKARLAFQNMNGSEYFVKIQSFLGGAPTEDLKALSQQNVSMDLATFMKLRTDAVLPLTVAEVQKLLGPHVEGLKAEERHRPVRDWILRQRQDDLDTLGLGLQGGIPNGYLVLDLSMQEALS", "assay": "cell-based or functional assay", "units": {"TDCC Average EC50 [M], OVCAR8 cells, human T cells": "M"}, "values": [{"binder": "MSLN targeting trispecific protein 7C4 (protein, part only; not given: Albumin and CD3 binders, linkers, part only) chain, part: QVQLVESGGGLVPSGGSLRLSCAASGATSAITNLGWYRRAPGQVREMVARISVREDKEDYEDSVKGRFTISRDNTQNLVYLQMNNLQPHDTAIYYCGAQRWGRGPGTTWGQGTQVTVSSHHHHHH", "TDCC Average EC50 [M], OVCAR8 cells, human T cells": "1e-08"}, {"binder": "MSLN targeting trispecific protein 2A4 (protein, part only; not given: Albumin and CD3 binders, linkers, part only) chain, part: QVQLVESGGGLVQARGSLRLSCTASGRTIGINDMAWYRQAPGNQRELVATITKGGTTDYADSVDGRFTISRDNAKNTVYLQMNSLKPEDTAVYYCNTKRREWAKDFEYWGQGTQVTVSSHHHHHH", "TDCC Average EC50 [M], OVCAR8 cells, human T cells": "1.9e-09"}, {"binder": "MSLN targeting trispecific protein 6H2 (protein, part only; not given: Albumin and CD3 binders, linkers, part only) chain, part: QVQLVESGGGLVQAGGSLRLSCAASGRTLSRYAMGWFRQAPGKERQFVAAISRSGGTTRYSDSVKGRFTISRDNAANTFYLQMNNLRPDDTAVYYCNVRRRGWGRTLEYWGQGTQVTVSSHHHHHH", "TDCC Average EC50 [M], OVCAR8 cells, human T cells": "2e-09"}, {"binder": "MSLN targeting trispecific protein 5D4 (protein, part only; not given: Albumin and CD3 binders, linkers, part only) chain, part: QVQLVESGGGLVQAGGSLRLSCVASGRTDRITTMGWYRQAPGKQRELVATISNRGTSNYANSVKGRFTISRDNAKNTVYLQMNSLKPEDTAVYYCNARKWGRNYWGQGTQVTVSSHHHHHH", "TDCC Average EC50 [M], OVCAR8 cells, human T cells": "1e-09"}, {"binder": "MSLN targeting trispecific protein 5H1 (protein, part only; not given: Albumin and CD3 binders, linkers, part only) chain, part: QVQLVESGGGLVQPGGSLRLSCAASGGDWSANFMYWYRQAPGKQRELVARISGRGVVDYVESVKGRFTISRDNAKNTVYLQMNSLKPEDTAVYYCAVASYWGQGTQVTVSSHHHHHH", "TDCC Average EC50 [M], OVCAR8 cells, human T cells": "5.9e-12"}, {"binder": "MSLN targeting trispecific protein 6F3 (protein, part only; not given: Albumin and CD3 binders, linkers, part only) chain, part: QVQPVESGGGLVQPGGSLRLSCVVSGSDFTEDAMAWYRQASGKERESVAFVSKDGKRILYLDSVRGRFTISRDIYKKTVYLQMDNLKPEDTGVYYCNSAPGAARNVWGQGTQVTVSSHHHHHH", "TDCC Average EC50 [M], OVCAR8 cells, human T cells": "8.2e-10"}, {"binder": "MSLN targeting trispecific protein 2A1 (protein, part only; not given: Albumin and CD3 binders, linkers, part only) chain, part: QVQPVESGGGLVQPGGSLRLSCVVSGSDFTEDAMAWYRQASGKERESVAFVSKDGKRILYLDSVRGRFTISRDIDKKTVYLQMDNLKPEDTGVYYCNSAPGAARNYWGQGTQVTVSSHHHHHH", "TDCC Average EC50 [M], OVCAR8 cells, human T cells": "1.2e-09"}, {"binder": "MSLN targeting trispecific protein 3G1 (protein, part only; not given: Albumin and CD3 binders, linkers, part only) chain, part: QVRLVESGGGLVQAGESLRLSCAASGRPFSINTMGWYRQAPGKQRELVASISSSGDFTYTDSVKGRFTISRDNAKNTVYLQMNSLKPEDTAVYYCNARRTYLPRRFGSWGQGTQVTVSSHHHHHH", "TDCC Average EC50 [M], OVCAR8 cells, human T cells": "4e-09"}, {"binder": "MSLN targeting trispecific protein 4A2 (protein, part only; not given: Albumin and CD3 binders, linkers, part only) chain, part: QVQLVESGGGLVQAGGSLRLSCAASGSTFGINAMGWYRQAPGKQRELVAVISRGGSTNYADSVKGRFTISRDNAENTVSLQMNTLKPEDTAVYFCNARTYTRHDYWGQGTQVTVSSHHHHHH", "TDCC Average EC50 [M], OVCAR8 cells, human T cells": "1.7e-09"}, {"binder": "MSLN targeting trispecific protein 2C2 (protein, part only; not given: Albumin and CD3 binders, linkers, part only) chain, part: QVQLVESGGGLVQAGESRRLSCAVSGDTSKFKAVGWYRQAPGAQRELLAWINNSGVGNTAESVKGRFTISRDNAKNTVYLQMNRLTPEDTDVYYCRFYRRFGINKNYWGQGTQVTVSSHHHHHH", "TDCC Average EC50 [M], OVCAR8 cells, human T cells": "9.5e-09"}, {"binder": "MSLN targeting trispecific protein 7H2 (protein, part only; not given: Albumin and CD3 binders, linkers, part only) chain, part: QVQLVESGGGLVQAGGSLRLSCAFSGTTYTFDLMSWYRQAPGKQRTVVASISSDGRTSYADSVRGRFTISGENGKNTVYLQMNSLKLEDTAVYYCLGQRSGVRAFWGQGTQVTVSSHHHHHH", "TDCC Average EC50 [M], OVCAR8 cells, human T cells": "5.5e-12"}, {"binder": "MSLN targeting trispecific protein 5D2 (protein, part only; not given: Albumin and CD3 binders, linkers, part only) chain, part: QVQLGESGGGLVQAGGSLRLSCAASGSIFSPNAMIWHRQAPGKQREPVASINSSGSTNYGDSVKGRFTVSRDIVKNTMYLQMNSLKPEDTAVYYCSYSDFRRGTQYWGQGTQVTVSSHHHHHH", "TDCC Average EC50 [M], OVCAR8 cells, human T cells": "1.4e-11"}, {"binder": "MSLN targeting trispecific protein 11F3 (protein, part only; not given: Albumin and CD3 binders, linkers, part only) chain, part: QVQLVESGGGLVQAGGSLRLSCVASGRTSTIDTMYWHRQAPGNERELVAYVTSRGTSNVADSVKGRFTISRDNAKNTAYLQMNSLKPEDTAVYYCSVRTTSYPVDFWGQGTQVTVSSHHHHHH", "TDCC Average EC50 [M], OVCAR8 cells, human T cells": "2.2e-12"}, {"binder": "MSLN targeting trispecific protein 9H2 (protein, part only; not given: Albumin and CD3 binders, linkers, part only) chain, part: QVQLVESGGGLVQAGGSLRLSCAASGSTSSINTMYWYRQAPGKERELVAFISSGGSTNVRDSVKGRFSVSRDSAKNIVYLQMNSLTPEDTAVYYCNTYIPLRGTLHDYWGQGTQVTVSSHHHHHH", "TDCC Average EC50 [M], OVCAR8 cells, human T cells": "1.1e-12"}, {"binder": "MSLN targeting trispecific protein 10B3 (protein, part only; not given: Albumin and CD3 binders, linkers, part only) chain, part: QVQLVESGGGLVQAGGSLRLSCAASGSTSSINTMYWYRQAPGKERELVAFISSGGSTNVRDSVKGRFSVSRDSAKNIVYLQMNSLKPEDTAVYYCNTYIPYGGTLHDFWGQGTQVTVSSHHHHHH", "TDCC Average EC50 [M], OVCAR8 cells, human T cells": "1.4e-12"}, {"binder": "MSLN targeting trispecific protein 5C2 (protein, part only; not given: Albumin and CD3 binders, linkers, part only) chain, part: QVQLVESGGGLVQAGGSLRLSCAASGSTSSINTMYWFRQAPGEERELVATINRGGSTNVRDSVKGRFSVSRDSAKNIVYLQMNRLKPEDTAVYYCNTYIPYGGTLHDFWGQGTQVTVSSHHHHHH", "TDCC Average EC50 [M], OVCAR8 cells, human T cells": "1.5e-12"}, {"binder": "MSLN targeting trispecific protein 12D1 (protein, part only; not given: Albumin and CD3 binders, linkers, part only) chain, part: QVRLVESGGGLVQAGGSLRLSCAASISAFRLMSVRWYRQDPSKQREWVATIDQLGRTNYADSVKGRFAISKDSTRNTVYLQMNMLRPEDTAVYYCNAGGGPLGSRWLRGRHWGQGTQVTVSSHHHHHH", "TDCC Average EC50 [M], OVCAR8 cells, human T cells": "1.1e-09"}, {"binder": "MSLN targeting trispecific protein 5G2 (protein, part only; not given: Albumin and CD3 binders, linkers, part only) chain, part: QVQLVESGGGLVQAGGSLRLSCAASGSTFGNKPMGWYRQAPGKQRELVAVISSDGGSTRYAALVKGRFTISRDNAKNTVYLQMESLVAEDTAVYYCNALRTYYLNDPVVFSWGQGTQVTVSSHHHHHH", "TDCC Average EC50 [M], OVCAR8 cells, human T cells": "3.6e-09"}, {"binder": "MSLN targeting trispecific protein 7F1 (protein, part only; not given: Albumin and CD3 binders, linkers, part only) chain, part: QVQLVESGGGLVQAGGSLRLSCAASAIGSINSMSWYRQAPGKQREPVAVITDRGSTSYADSVKGRFTISRDNAKNTVYLQMNSLKPEDTAIYTCHVIADWRGYWGQGTQVTVSSHHHHHH", "TDCC Average EC50 [M], OVCAR8 cells, human T cells": "2.4e-12"}, {"binder": "MSLN targeting trispecific protein 2F4 (protein, part only; not given: Albumin and CD3 binders, linkers, part only) chain, part: QVQLVESGGGLVQAGGSLRLSCTTSTTFSINSMSWYRQAPGNQREPVAVITNRGTTSYADSVKGRFTISRDNARNTVYLQMDSLKPEDTAIYTCHVIADWRGYWGQGTQVTVSSHHHHHH", "TDCC Average EC50 [M], OVCAR8 cells, human T cells": "7.3e-13"}, {"binder": "MSLN targeting trispecific protein 2D1 (protein, part only; not given: Albumin and CD3 binders, linkers, part only) chain, part: QVQLVESGGGLVQAGGSLRLSCAASTTSSINSMSWYRQAQGKQREPVAVITDRGSTSYADSVKGRFTISRDNAKNTVYLQMNSLKPEDTAIYTCHVIADWRGYWGQGTQVTVSSHHHHHH", "TDCC Average EC50 [M], OVCAR8 cells, human T cells": "5.2e-11"}, {"binder": "MSLN targeting trispecific protein 3F2 (protein, part only; not given: Albumin and CD3 binders, linkers, part only) chain, part: QVQIVESGGGLVQAGGSLRLSCVASGLTYSIVAVGWYRQAPGKEREMVADISPVGNTNYADSVKGRFTISKENAKNTVYLQMNSLKPEDTAVYYCHIVRGWLDERPGPGPIVYWGQGTQVTVSSHHHHHH", "TDCC Average EC50 [M], OVCAR8 cells, human T cells": "2.4e-08"}, {"binder": "MSLN targeting trispecific protein 3B4 (protein, part only; not given: Albumin and CD3 binders, linkers, part only) chain, part: QVQLVESGGGLVQAGGSLRLSCVASGSTSNINNMRWYRQAPGKERELVAVITRGGYAIYLDAVKGRFTISRDNANNAIYLEMNSLKPEDTAVYVCNADRVEGTSGGPQLRDYFGQGTQVTVSSHHHHHH", "TDCC Average EC50 [M], OVCAR8 cells, human T cells": "1.8e-12"}, {"binder": "MSLN targeting trispecific protein 12C2 (protein, part only; not given: Albumin and CD3 binders, linkers, part only) chain, part: QVQLVESGGGLVQTGGSLRLSCAASGLTFGVYGMEWFRQAPGKQREWVASHTSTGYVYYRDSVKGRFTISRDNAKSTVYLQMNSLKPEDTAIYYCKANRGSYEYWGQGTQVTVSSHHHHHH", "TDCC Average EC50 [M], OVCAR8 cells, human T cells": "8e-13"}, {"binder": "MSLN targeting trispecific protein 2A2 (protein, part only; not given: Albumin and CD3 binders, linkers, part only) chain, part: QVQLVESGGGLVQAGGSLTLSCAASGSTFSIRAMRWYRQAPGTERDLVAVIYGSSTYYADAVKGRFTISRDNAKNTLYLQMNNLKPEDTAVYYCNADTIGTARDYWGQGTQVTVSSHHHHHH", "TDCC Average EC50 [M], OVCAR8 cells, human T cells": "1.6e-12"}, {"binder": "MSLN targeting trispecific protein 5F2 (protein, part only; not given: Albumin and CD3 binders, linkers, part only) chain, part: QVQLVESGGGLVQAGGSLRLSCAASGSTFRIRVMRWYRQAPGTERDLVAVISGSSTYYADSVKGRFTISRDNAKNTLYLQMNNLKPEDTAVYYCNADDSGIARDYWGQGTQVTVSSHHHHHH", "TDCC Average EC50 [M], OVCAR8 cells, human T cells": "5.3e-12"}, {"binder": "MSLN targeting trispecific protein 9F3 (protein, part only; not given: Albumin and CD3 binders, linkers, part only) chain, part: QVQLVESGGGLVQAGGSLRLSCAASGSIPSIEQMGWYRQAPGKQRELVAALTSGGRANYADSVKGRFTISGDNVRNMVYLQMNSLKPEDTAIYYCSAGRFKGDYAQRSGMDYWGKGTLVTVSSHHHHHH", "TDCC Average EC50 [M], OVCAR8 cells, human T cells": "> 1e-07"}, {"binder": "MSLN targeting trispecific protein 9B1 (protein, part only; not given: Albumin and CD3 binders, linkers, part only) chain, part: QVQLVESGGGLVQPGGSLRLSCAASGRTFSVRGMAWYRQAGNNRALVATMNPDGFPNYADAVKGRFTISWDIAENTVYLQMNSLNSEDTTVYYCNSGPYWGQGTQVTVSSHHHHHH", "TDCC Average EC50 [M], OVCAR8 cells, human T cells": "> 1e-07"}]}]}
